The values below come from patent US20110097270A1 (published 2011).

In the test the target is hepatitis B virus (HBV) inoculum (hepatitis B virus). As to the kind of experiment: cell-based or functional assay.

B1: HBV#8 Fab (Fab, V domains shown)
VH: EVQLLESGPGLVKPSQTLSLTCAVSGAFMTSDYLYWSWLRQPPGKGPEWIGGIYTTGRSHYNPSLRGRATLSVDTSKNQFSLELNSVTAADTAVYYCARGQYHNWGPSLFDYYNYYYMDVWGKGTTVTVSS
VL: AAELTQSPSSLSASVGDRVTITCRASQDISNYLAWYQQKPGKAPKLLIYSASRLQSGVPSRFSGSGSGTDYTLTLSSLHPEDSATYYCHQYHSAPWTFGQGTKVEIKR
On to B1, for which the “P/N of HBsAg in cell supernatant (RIA, day 12) at MAb 0.01 µg ml^-1” value turned out to be 82 P/N ratio; the “P/N of HBsAg in cell supernatant (RIA, day 12) at MAb 0.1 µg ml^-1” value amounted to 83.3 P/N ratio; the “P/N of HBsAg in cell supernatant (RIA, day 12) at MAb 1.0 µg ml^-1” value was determined as 55.8 P/N ratio; the “P/N of HBsAg in cell supernatant (RIA, day 12) at MAb 10.0 µg ml^-1” value was 4.1 P/N ratio.
